According to the supplement of paper PMC7877785:
± gives the uncertainty stated by the source.

Assay: self-splicing fitness, log relative to wild type (ln ratio); higher = more splicing; Tetrahymena group I intron in knt gene, E. coli kanamycin selection, DiMSum; sequences stand for … in CUCUCU…GGAGGGAAAAGUUAUCAGGCAUGCACCUGGUAGCUAGUCUUUAAACCAAUAGAUUGCAUCGGUUUAAAAGGCAAGACCGUCAAAUUGCGGGAAAGGGGUCAACAGCCGUUCAGUACCAAGUCUCAGGGGAAACUUUGAGAUGGCCUUGCAAAGGGUAUGGUAAUAAGCUGACGGACAUGGUCCUAACCACGCAGCCAAGUCCUAAGUCAACAGAUCUUCUGUUGAUAUGGAUGCAGUUCACAGACUAAAUGUCGGUCGGGGAAGAUGUAUUCUUCUCAUAAGAUAUAGUCGGACCUCUCCUUAAUGGGAGCUAGCGGAUGAAGUGAUGCAACACUGGAGCCGCUGGGAACUAAUUUGUAUGCGAAAGUAUAUUGAUUAGUUUUGGAGUACUCGUGGUCG
Summary of the method: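 Fitness was computed with DiMSum as the error-weighted combination of replicate fold changes, kanamycin versus none, each normalised to wild type. The library randomised all eight intron nucleotides of the P1ex region, with the intron placed in the knt kanamycin-resistance gene on pET-22b(+) in E. coli BL21(DE3). Six replicate transformations were grown overnight at 37°C or 30°C on LB agar with or without 25 μg/mL kanamycin, plus 100 μg/mL carbenicillin, 50 μM IPTG and 0.2% rhamnose. Pooled colonies were amplicon-sequenced on an Illumina HiSeq 2500.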

Sequence	self-splicing fitness (ln) (30 °C)	self-splicing fitness (ln) (37 °C)
GGUGAGCAAUAUUACGGUCC	-1.66 ± 0.13	-0.523 ± 0.15
GGCGAGCAAUAUUACGAGUU	-2.42 ± 0.14	-1.19 ± 0.16
AUGGAGCAAUAUUACGGCGA		-1.68 ± 0.29
GGGAAGCAAUAUUACGUAUU	-1.87 ± 0.13	-1.58 ± 0.15
AACCAGCAAUAUUACGGGCA	-0.402 ± 0.041	0.117 ± 0.053
GCAUAGCAAUAUUACGUGAU	-1.64 ± 0.066	-0.927 ± 0.08
GAUCAGCAAUAUUACGCUAG	-1.15 ± 0.15	-0.723 ± 0.18
UCGCAGCAAUAUUACGCCGG	-2.67 ± 0.22	-1.76 ± 0.38
GAUUAGCAAUAUUACGUCCU	-1.08 ± 0.14	-0.47 ± 0.18
AAACAGCAAUAUUACGCCUA	-1.13 ± 0.086	-0.0496 ± 0.075
UACGAGCAAUAUUACGACUG	-0.684 ± 0.24	-1.35 ± 0.17
UCGGAGCAAUAUUACGGUGG	-3.35 ± 0.12	-2.01 ± 0.16
GCGUAGCAAUAUUACGUGCC	-3.08 ± 0.25	-2.83 ± 0.44
CGGGAGCAAUAUUACGAUUU	-3.64 ± 0.33	-1.2 ± 0.24
GGUGAGCAAUAUUACGAAUA	-2.09 ± 0.33	
UUUUAGCAAUAUUACGUGUA	-2.96 ± 0.27	-1.84 ± 0.17
AUCAAGCAAUAUUACGGGGA	-1.43 ± 0.12	-1.49 ± 0.13
UAAAAGCAAUAUUACGGCAC	-1.64 ± 0.14	-1.13 ± 0.2
CACAAGCAAUAUUACGUGCA	-2.56 ± 0.11	-1.55 ± 0.093
CCCUAGCAAUAUUACGCGAA	-1.83 ± 0.2	-2.2 ± 0.23
UUAUAGCAAUAUUACGUAGU	-3.03 ± 0.24	-2.71 ± 0.4
ACUAAGCAAUAUUACGCGGC	-3.74 ± 0.23	-1.85 ± 0.18
AGUGAGCAAUAUUACGUUCA	-3.1 ± 0.38	-2.41 ± 0.37
CGGGAGCAAUAUUACGUGAA		-2.15 ± 0.3
GUAAAGCAAUAUUACGCACC	-0.664 ± 0.49	

Sequence	self-splicing fitness (ln) (30 °C)	self-splicing fitness (ln) (37 °C)
CAAAAGCAAUAUUACGCUCC	-2.23 ± 0.22	-1.99 ± 0.29
GCAAAGCAAUAUUACGGAGG	-1.9 ± 0.1	-1.62 ± 0.14
CCUAAGCAAUAUUACGGCUU	-3.04 ± 0.15	-3.04 ± 0.21
UUACAGCAAUAUUACGUGUC	-3.93 ± 0.17	-3.21 ± 0.21
GGCAAGCAAUAUUACGGGUA	-1.57 ± 0.1	-0.544 ± 0.11
GAGGAGCAAUAUUACGUUUU	-2.16 ± 0.13	-1.56 ± 0.15
AGCUAGCAAUAUUACGCGGA	-2.29 ± 0.14	-2.71 ± 0.18
CGGCAGCAAUAUUACGUAGU	-3.77 ± 0.21	-0.852 ± 0.12
ACUCAGCAAUAUUACGGUCC	-1.91 ± 0.11	-0.708 ± 0.14
GAGGAGCAAUAUUACGCAUA	-1.86 ± 0.35	
AGAUAGCAAUAUUACGGCAA	0.243 ± 0.16	-0.127 ± 0.19
UUACAGCAAUAUUACGAGUA	-1.5 ± 0.14	-0.933 ± 0.11
AGUAAGCAAUAUUACGCACG	-1.43 ± 0.1	-0.219 ± 0.12
ACUGAGCAAUAUUACGGGUA	-3.08 ± 0.24	-1.67 ± 0.14
AUUGAGCAAUAUUACGCCAU	-3.54 ± 0.24	-1.69 ± 0.19
CUACAGCAAUAUUACGGAGC	-3.83 ± 0.14	-3.14 ± 0.17
AAUUAGCAAUAUUACGUACC	-0.499 ± 0.21	-0.307 ± 0.29
CUCCAGCAAUAUUACGGGCU	-3.21 ± 0.13	-2.49 ± 0.18
CUUGAGCAAUAUUACGCAUA	-3.01 ± 0.36	
CUUAAGCAAUAUUACGCAUG	-2.35 ± 0.12	-1.5 ± 0.13
CGGAAGCAAUAUUACGAUGA	-1.91 ± 0.11	-0.379 ± 0.096
AAUUAGCAAUAUUACGCUAG	-2.38 ± 0.13	-1.06 ± 0.13
CACGAGCAAUAUUACGCGAG	-1.52 ± 0.17	-2.5 ± 0.26
GCCCAGCAAUAUUACGUAUG	-3.42 ± 0.18	-2.09 ± 0.18
GUGAAGCAAUAUUACGUCCA	-0.721 ± 0.16	0.775 ± 0.22

Sequence	self-splicing fitness (ln) (30 °C)	self-splicing fitness (ln) (37 °C)
UGGGAGCAAUAUUACGGCAA	-2.97 ± 0.47	-0.863 ± 0.32
ACCCAGCAAUAUUACGGCGU	-2.08 ± 0.081	-0.746 ± 0.084
AAUAAGCAAUAUUACGGGCA	-0.69 ± 0.1	-0.292 ± 0.11
CUCCAGCAAUAUUACGAUUU	-3.75 ± 0.2	-2.08 ± 0.15
AGCGAGCAAUAUUACGAAUA	-3.75 ± 0.46	-3.32 ± 0.37
AGAAAGCAAUAUUACGUGCC	-0.45 ± 0.12	-0.309 ± 0.16
UUACAGCAAUAUUACGUACA	-0.278 ± 0.087	0.137 ± 0.1
CUGAAGCAAUAUUACGAUUU	-3.34 ± 0.2	-1.6 ± 0.24
CUGUAGCAAUAUUACGACGG	-2.64 ± 0.23	-1.07 ± 0.42
AGUAAGCAAUAUUACGCAAG	-2.99 ± 0.16	-1.88 ± 0.19
GCGAAGCAAUAUUACGAUAU	-2.52 ± 0.13	-1.22 ± 0.12
GGUAAGCAAUAUUACGGACU	-1.43 ± 0.17	-0.246 ± 0.2
UGCAAGCAAUAUUACGGAAA	-1.82 ± 0.17	-2.45 ± 0.22
CUAAAGCAAUAUUACGCGAG	-0.464 ± 0.077	0.0633 ± 0.11
CUCUAGCAAUAUUACGCGCU	-2.55 ± 0.3	-3.61 ± 0.27
CUUGAGCAAUAUUACGUGAU	-4.13 ± 0.21	-1.96 ± 0.15
CUGUAGCAAUAUUACGUCUC	-4.07 ± 0.39	
UCAGAGCAAUAUUACGAAUG	-1.78 ± 0.24	-2.76 ± 0.38
UGGAAGCAAUAUUACGUUGG	-2.69 ± 0.19	-0.902 ± 0.14
ACGCAGCAAUAUUACGGAGG	-3.65 ± 0.15	-1.84 ± 0.12
UCGUAGCAAUAUUACGUCGG	-1.49 ± 0.15	-0.337 ± 0.17
CACUAGCAAUAUUACGCAGC	-3.17 ± 0.31	-2.28 ± 0.37
CUGUAGCAAUAUUACGUGAA		-2.71 ± 0.29
CGAUAGCAAUAUUACGUUCC	-1.5 ± 0.25	-1.51 ± 0.32
AGCAAGCAAUAUUACGCGGU	-3.33 ± 0.16	-1.66 ± 0.17

Sequence	self-splicing fitness (ln) (30 °C)	self-splicing fitness (ln) (37 °C)
UGGCAGCAAUAUUACGACUC	-1 ± 0.1	-1.1 ± 0.12
UUAGAGCAAUAUUACGAUUC	-2.62 ± 0.25	-2.44 ± 0.35
GGUCAGCAAUAUUACGACUA	0.124 ± 0.092	0.866 ± 0.13
AUGGAGCAAUAUUACGCGAA	-1.66 ± 0.31	-2.36 ± 0.29
GUCAAGCAAUAUUACGCAUU	-1.21 ± 0.089	-1.02 ± 0.13
CGCUAGCAAUAUUACGCCGC	-2.55 ± 0.18	
UAAUAGCAAUAUUACGAAUG	-1.37 ± 0.11	-0.382 ± 0.11
GUGUAGCAAUAUUACGUAAC	-1.66 ± 0.14	-0.0998 ± 0.14
AAUUAGCAAUAUUACGGGUC	-1.55 ± 0.24	-0.486 ± 0.24
CCCCAGCAAUAUUACGGCAA	-3.17 ± 0.15	-3.06 ± 0.2
UUCAAGCAAUAUUACGGAGU	-3.82 ± 0.27	-2.56 ± 0.23
UUCAAGCAAUAUUACGUGUC	-2.84 ± 0.11	-2.45 ± 0.14
GAAGAGCAAUAUUACGUUCC	-4.33 ± 0.28	-2.04 ± 0.31
UUCUAGCAAUAUUACGCUAA	-2.53 ± 0.21	-0.91 ± 0.14
GGUCAGCAAUAUUACGGAAU	-0.593 ± 0.054	-0.0986 ± 0.069
CCAUAGCAAUAUUACGAAAC	-4.09 ± 0.35	-2 ± 0.29
UUCAAGCAAUAUUACGCCGU	-2.25 ± 0.2	-1.46 ± 0.19
AGGCAGCAAUAUUACGUAAC	-2.03 ± 0.12	-0.934 ± 0.14
UGUAAGCAAUAUUACGGAUA	-1.38 ± 0.11	-1.27 ± 0.12
CGAAAGCAAUAUUACGGGUU	-3.58 ± 0.21	-2.74 ± 0.19
GCGUAGCAAUAUUACGUCAA		-2.38 ± 0.32
GAAUAGCAAUAUUACGUCCU	-1.05 ± 0.11	0.425 ± 0.15
CCGGAGCAAUAUUACGCGUU	-2.5 ± 0.28	-2.28 ± 0.24
